This series in a line: total protein half-life in vivo (active degradation + dilution); higher = more stable protein.
[1] abbreviates: E. coli NCM3722 delta-clpP delta-lon delta-hslV, growth: N-lim chemostat, doubling time 6 h.
Where [2] appears, read: E. coli NCM3722 delta-clpP, growth: N-lim chemostat, doubling time 6 h.
The mark [3] stands for this setting: E. coli NCM3722 delta-hslV, growth: N-lim chemostat, doubling time 6 h.
The mark [4] stands for this setting: E. coli NCM3722 delta-smpB, growth: N-lim chemostat, doubling time 6 h.
The mark [5] stands for this setting: wild type E. coli NCM3722, growth: C-lim chemostat, doubling time 3 h.
The mark [6] stands for this setting: wild type E. coli NCM3722, growth: C-lim chemostat, doubling time 6 h.
Where [7] appears, read: wild type E. coli NCM3722, growth: C-lim chemostat, doubling time 12 h.
Where [8] appears, read: wild type E. coli NCM3722, growth: N-lim chemostat, doubling time 6 h.
Setting [9] is: wild type E. coli NCM3722, growth: N-lim chemostat, doubling time 12 h.
The mark [10] stands for this setting: wild type E. coli NCM3722, growth: P-lim chemostat, doubling time 6 h.
The mark [11] stands for this setting: wild type E. coli NCM3722, growth: P-lim chemostat, doubling time 12 h.
[12] abbreviates: E. coli NCM3722 delta-lon, growth: N-lim chemostat, doubling time 6 h.

± gives the standard deviation of the averaged measurements.

For the sequence “MLELNAKTTALVVIDLQEGILPFAGGPHTADEVVNRAGKLAAKFRASGQPVFLVRVGWSADYAEALKQPVDAPSPAKVLPENWWQHPAALGATDSDIEIIKRQWGAFYGTDLELQLRRRGIDTIVLCGISTNIGVESTARNAWELGFNLVIAEDACSAASAEQHNNSINHIYPRIARVRSVEEILNAL [P0ADI7]”, the “total protein half-life in vivo” value under setting [1] came out at 5.53 ± 0.15 h; the “total protein half-life in vivo” value under setting [2] was 5.05 ± 0.3 h; the “total protein half-life in vivo” value under setting [3] stood at 4.968 ± 0.024 h; the “total protein half-life in vivo” value under setting [4] is 5.08 ± 0.54 h; the “total protein half-life in vivo” value under setting [5] came to 3.07 ± 0.33 h; the “total protein half-life in vivo” value under setting [6] is 5.75 ± 0.29 h. For the same sequence, the “total protein half-life in vivo” value runs as follows: under setting [7], 10.9 ± 0.94 h; under setting [8], 5.19 ± 0.59 h; under setting [9], 9.838 ± 0.087 h; under setting [10], 5.81 ± 0.12 h; under setting [11], 12.7 ± 0.69 h.

“MLPSISINNTSAAYPESINENNNDEVNGLVQEFKNLFNGKEGISTCIKHLLELIKNAIRVNDDPYRFNINNSSVTYIDIDSNDTDHITIGIDNQEPIELPANYKDKELVRTIINDNIVEKTHDINNKEMIFSALKEIYDGDPGFIFDKISHKLRHTVTEFDESGKSEPTDLFTWYGKDKKGDSLAIVIKNKNGNDYLSLGYYDQDDYHIQRGIRINGDSLTQYCSENARSASAWFESSKAIMAESFATGSDHQVVNELNGERLREPNDVFKRYGRAIRYDFQVDDAKYKCDHLKEIVSTLVGNKINVGHSQKIYKHFKDLEGKIEERLQNRQAEYQNEINQPSAPGVNFDDI”: the “total protein half-life in vivo” value under setting [8] amounted to 5.3 h.

With “MYDNLKSLGITNPEEIDRYSLRQEANNDILKIYFQKDKGEFFAKSVKFKYPRQRKTVVADGVGQGYKEVQEISPNLRYIIDELDQICQRDRSEVDLKRKILDDLRHLESVVTNKISEIEADLEKLTRK”, the “total protein half-life in vivo” value is, setting by setting: under setting [2], 4.32 ± 0.1 h; under setting [3], 4.18 ± 0.52 h; under setting [12], 4.82 ± 0.08 h; under setting [4], 3.61 ± 0.31 h; under setting [5], 3.26 ± 0.19 h; under setting [6], 5.55 ± 0.13 h. In addition, the “total protein half-life in vivo” value was 8.4 ± 0.45 h under setting [7]; 3.77 ± 0.094 h under setting [8]; 6.16 ± 0.23 h under setting [9]; 5.45 ± 1.6 h under setting [10]; 12 ± 0.17 h under setting [11].

As for “MLLNALASLGHKGIKTLRTFGRAGLMLFNALVGKPEFRKHAPLLVRQLYNVGVLSMLIIVVSGVFIGMVLGLQGYLVLTTYSAETSLGMLVALSLLRELGPVVAALLFAGRAGSALTAEIGLMRATEQLSSMEMMAVDPLRRVISPRFWAGVISLPLLTVIFVAVGIWGGSLVGVSWKGIDSGFFWSAMQNAVDWRMDLVNCLIKSVVFAITVTWISLFNGYDAIPTSAGISRATTRTVVHSSLAVLGLDFVLTALMFGN”, the “total protein half-life in vivo” value was found to be 6.31 h under setting [2]; 6.03 h under setting [3]; 4.82 h under setting [12]; 5.29 h under setting [4]; 3.19 h under setting [5]; 7.45 h under setting [8]. Moreover, the “total protein half-life in vivo” value by setting is: under setting [9], 11.3 h; under setting [10], over 8 h; under setting [11], 11.55 ± 0.11 h.

Turning to “MVAVRSAHINKAGEFDPEKWIASLGITSQKSCECLAETWAYCLQQTQGHPDASLLLWRGVEMVEILSTLSMDIDTLRAALLFPLADANVVSEDVLRESVGKSVVNLIHGVRDMAAIRQLKATHTDSVSSEQVDNVRRMLLAMVDDFRCVVIKLAERIAHLREVKDAPEDERVLAAKECTNIYAPLANRLGIGQLKWELEDYCFRYLHPTEYKRIAKLLHERRLDREHYIEEFVGHLRAEMKAEGVKAEVYGRPKHIYSIWRKMQKKNLAFDELFDVRAVRIVAERLQDCYAALGIVHTHYRHLPDEFDDYVANPKPNGYQSIHTVVLGPGGKTVEIQIRTKQMHEDAELGVAAHWKYKEGAAAGGARSGHEDRIAWLRKLIAWQEEMADSGEMLDEVRSQVFDDRVYVFTPKGDVVDLPAGSTPLDFAYHIHSDVGHRCIGAKIGGRIVPFTYQLQMGDQIEIITQKQPNPSRDWLNPNLGYVTTSRGRSKIHAWFRKQDRDKNILAGRQILDDELEHLGISLKEAEKHLLPRYNFNDVDELLAAIGGGDIRLNQMVNFLQSQFNKPSAEEQDAAALKQLQQKSYTPQNRSKDNGRVVVEGVGNLMHHIARCCQPIPGDEIVGFITQGRGISVHRADCEQLAELRSHAPERIVDAVWGESYSAGYSLVVRVVANDRSGLLRDITTILANEKVNVLGVASRSDTKQQLATIDMTIEIYNLQVLGRVLGKLNQVPDVIDARRLHGS [P0AG20]”, the “total protein half-life in vivo” value by setting is: under setting [1], 5.7 ± 0.41 h; under setting [2], 5.46 ± 0.31 h; under setting [3], 4.65 ± 0.24 h; under setting [12], 4.99 ± 0.054 h; under setting [4], 4.36 ± 0.23 h; under setting [5], 2.68 ± 0.21 h. Further, the “total protein half-life in vivo” value came out at 4.87 ± 0.11 h under setting [6]; 8.04 ± 0.43 h under setting [7]; 4.74 ± 0.17 h under setting [8]; 7.78 ± 0.22 h under setting [9]; 4.8 ± 0.23 h under setting [10]; 9.13 ± 0.26 h under setting [11].

“MRVLVTGGSGYIGSHTCVQLLQNGHDVIILDNLCNSKRSVLPVIERLGGKHPTFVEGDIRNEALMTEILHDHAIDTVIHFAGLKAVGESVQKPLEYYDNNVNGTLRLISAMRAANVKNFIFSSSATVYGDQPKIPYVESFPTGTPQSPYGKSKLMVEQILTDLQKAQPDWSIALLRYFNPVGAHPSGDMGEDPQGIPNNLMPYIAQVAVGRRDSLAIFGNDYPTEDGTGVRDYIHVMDLADGHVVAMEKLANKPGVHIYNLGAGVGNSVLDVVNAFSKACGKPVNYHFAPRREGDLPAYWADASKADRELNWRVTRTLDEMAQDTWHWQSRHPQGYPD”: the “total protein half-life in vivo” value came out at 6.39 ± 1.9 h under setting [1]; 4.762 ± 0.027 h under setting [2]; 4.54 ± 0.37 h under setting [3]; 5 ± 0.24 h under setting [12]; 5.61 ± 1.2 h under setting [4]; 3.11 ± 0.27 h under setting [5]. For the same sequence, the “total protein half-life in vivo” value reads like this: under setting [6], 5.62 ± 0.26 h; under setting [7], 11.6 ± 0.67 h; under setting [8], 4.53 ± 0.95 h; under setting [9], 13.7 ± 1.8 h; under setting [10], 5.91 ± 0.51 h; under setting [11], 11.7 ± 0.53 h.

The values are drawn from the supplement of paper PMC11246515.
